Experiment: yeast display, Sf9 membrane polyspecificity reagent, FACS + sequencing; frameworks hold sequencing errors
How it was run: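 Using colony PCR, genes from sorted yeast display clones were amplified, then sequenced on MiSeq at 2 × 250 and filtered by CDR length. The clones had been stained with 10% biotinylated, detergent-solubilized Sf9 membrane reagent for 1 hour at 4 °C and sorted by FACS into low and high (top ~1%) gates on anti-HA and streptavidin fluorescence. Polyreactivity labels come from the gate of origin.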

Sequence | polyreactivity (PSR sort gate)
QVQHVESGGNLFKAGGSLRLSCAASGITFVYNAMGWYRPAPGKERELVDGITWSGSSTYYADSVKGRFTISRDNAKNTVYFHMNSLKPDDTAVYYCDAYLYDRTTRYTYYYWGQGTQVTVSS | high polyreactivity
QVQHVESGRGLVQAGGSLRLSCDASGFTFRSYPIGWYRHAPGKERELVAGITWRGGRTYYADSVKGRFTISRDNAKNTVYLQMNSLKPEDTAVYNCAKLYRYIYGGMDYWGQGTQVTVSS | high polyreactivity
QVQHVESGRGLVQAGGSLRLSCSASVRIFYNYAMGWYRQAPGKERELVAAISGSGGSTYYADSVKGRFTISRDNAKNSVYLQMNSQKPEDTAVYYCNKAVRRYPRFDYWGQGTQVTVSS | low polyreactivity
QVQHVESRGGLVQAGGSLRLSCAASGFTSDSNAMGWYRQAPGKERELVAAIDSGGGSTYYADSVKGRFTISRDNAKNTVYLQMISLKPEDTAVYYCNAEQTPFVASLRVGEYGYWGQGTQVTVSS | low polyreactivity
QVQHVESRGGLVQAGGSLRLSCAASGRTFQANAMGCYRQAPGKERELVAAITGRGGTTYYADSVKGRFTISRDNAKNTVYLQMNSLKPEDTAVYYCARALSGYGFWGYEYWGQGTQVTVSS | low polyreactivity
QVQHVESRGGLVQAGGSLRLSCAASGRTFVRYAMGWYRQAPGKERELVAAISGDGASTYYADSVKGRFTISRDNAMNTVYLQMNSLKPEDTAVYYCNARSIRRYYYPDYDYWGQGTQVTVSS | high polyreactivity
QVQHVESRGGLVQAGGSLRLSCAASGSIFFAYAMGWDRQGPGKEREFVAAISASGGSTSYADSVKGRFTISRDNAKNTVYLQMNSLKPEDTAVYYCATEHSVTTYDYWGQGTQVTVSS | low polyreactivity
QVQHVESVGGLDQAGVSLRLSSSASGITFSYNAMGCSRQAPGKESEFVAAISSNSDSTYYADSVKGRFTISRDNAKNTVYLQMNSLKPEDTAVYYCAAETPDAPDYSGFYYWGQGTQVTVSS | low polyreactivity
QVQHVESVGGLVQAGGSLRLSCAASGGIFWVYAMGWYRQAPGKERELVAAISNSDTSTSYADSVKGRFTISRDNAKNTVYLQMNSLKPEDTAVYYCNADSPSLSGDYWGQGTQVTVSS | low polyreactivity
QVQHVESVGGLVQAGGSLRLSCAASGRTFGAYDMGWYRQAPGKERELVAAITRSGGSTYYADSVKGRFTISRDNAKNTVYLQMNSLKPEDTAVYYCAARDQVYNYRFGSRGGVYYWGQGTQVTVSS | high polyreactivity
QVQHVESVGGLVQAGGSLRLSCAASGRTLKKNAMGWYRQAPGKERELVAAISTGGRTYYADSVKGRFTISRDNAKNTVYLQMNSLKPEDTAVYYCNFQFLSWSTIWGNDYWGQGTQVTVSS | high polyreactivity
QVQHVESVGGLVQAGGTLRLSCSASGQIFEPYAMGWYRQAPGKERELVAAINSGGSTNYADSVKGRFTISRDNAKNTVYLQMNSLKPEDTAVYYCNKGQNIRQSPGDYWGLGTQVTVSS | low polyreactivity
QVQHVESVVGLVQAGGSLRLSCAASGSTFGPNAMGWSRQAPGKERELVAAITSGGRTYYADSVKGRFTISRDNAKNTVYLQMNSLKPEDTAVYYCAARVSVGVPRYEYWGQGTQVTVSS | high polyreactivity
QVQHVETGGGLVQAGGSLRLSCAASGFIFSQYAMGWYRQAPGKERELVAAISSGSTYADSVKGRVTISRDNAKNTVYLQMNSLKPEDTAVYYCAVDYHQAWPSADYWFEYVYWGQGTQVTVSS | low polyreactivity
QVQHVETGGGLVQAGGSLRLSCAASGRIFSYNAMGWYRQPPGKERELVAAISQRGGRTYYADSVKGRFTISRDNAKNTVYLQMNSLKPEDPAVYDCNKDKGQSLSSYGYWGQGTQVTVSS | high polyreactivity
QVQHVETGGGLVQAGGSLRLSCAATGYTLYRYPMGWYRQAPGKERELVARISYRTGSTYYADSVKGRFTISRDKAKNTVYLQMNSLKPEDTAVYYCAKYPGISGYKYWGQGTQVTVSS | high polyreactivity
QVQHVETGRDLVQAGGSLRLSCAAAGLIFVSYAMGGYRQAPGKERELVASITDSDSSTYYADSVKGRFTISRDNAKNTVYLQMNSLKPEDTAVYYCATGGRTEIWYPTLDYWGQGTQVTVSS | low polyreactivity
QVQIEDSGGGLVQAGGSLRLICAASGFTFINNDMGWYRQAPGKERELVAAISDSDGTTYYADSVKGRFTISRDNAKNTVYLQMNSLKPEDTEVYYCAADVVPTWEDEYWGQGTQVTVSS | low polyreactivity
QVQIEESGGGLVQAGGSLRLSCAASGFTFRWYAMGWSIQAPGKERELVAAIDWSGGSTNYADSVKGRFTISRDNAKNTVYLQMNSLKPEDTAVYYCAAVWRYWYPGFVPYDYWGQGTQVTVSS | high polyreactivity
QVQIEESGGGLVQAGGSLRLSCAASGRIFGSYTMGWSRQAPRKERELVAGISRRGGSTYYADSVKGRFTISRDNAKYTVYLQMNSLTTEDTAVYYCNTLRTNLFFTPLGFDYWGQGTQVTVSS | high polyreactivity
QVQIEESGGGLVQAGGSLRLSCAASGRTFLHKDMGWYRPAPGKERELVAAINVSDGSTYYADSVKGRFTISRDNAKNTVYLQMNSLKPEDTAVYYCAKASYIIFRFEYRSGYDYWGQGTQVTVSS | low polyreactivity
QVQIEESGGGLVQAGGSLRLSCAASGSIFPLYTMGWSRQAPGKERELVAAIDFRGGSTYYADSVKGRFTISRDNAKNSVYLQMNSLKPEDTAVYYCAAAYWAYDTGKMGYWGQGTQVTVSS | low polyreactivity

Sequence | polyreactivity (PSR sort gate)
QVQILESGGGLVQAGGSLGLSCAASGSTFPPYAMGWYRQAPGKERELVATITRGGSTYYADSVKGRFTFSRDNAKNTVYVQMNSLKPADTAVYDCNAKVNRSRRSNLYDYWGQGTQVTVSS | high polyreactivity
QVQIVASWGGLVQAGGSLRLSCAATGRIFEINAMGWYRQAPGKERELVAAITRSGGSTYYADSVKGRFTISRDYAKNTVYVQMNSLKPEDTAVYYCAARGRYWYSRYYSWGQGTQVTVSA | high polyreactivity
QVQIVDSGVGLVQAGGSLRLSCAASGSIFKYNAKGWYREAPGKVRELVAAIRWSGVGTRYADSVKGRFTISRVNAKNTVYLQMNSLKPEDTAVYSCAARYGRHRVSCYATWRYGYWGQGTQVTVSS | low polyreactivity
QVQIVESCGGLFQAAGRLRLICADSRSIFSYNAMGWYRQAPGKERELVAAITSGGRTYYADSVKGRFTISRDNAKNTVYLQMNSLKPEDTGVYYCAAYQTGLHGFYSWGQGTQVTVSS | high polyreactivity
QVQIVESCGGLVQAGGSLRLSCAASGITFDVNTMGWYRQAPGKEREMVAAITRDVTTNYADSVKGPFTISRDNAKNTVYLQMNSLKPEDTAVYYCAADGYGQYSQVTDHPYKYNYWRQGTQVTVSS | low polyreactivity
QVQIVESGAGLVQAGGTLRISCAPSGITFTPYAMGWYRQAPGKEWELVATITSDGGSTYYADSVKGRFTISRDNAKNTVYLQKNSLKPEETAVYYCAAADHAWLYGWGYSLDVWYYYWGQGNQVTVSS | low polyreactivity
QVQIVESGAVIVQAGGSLRLSCAASGSTFGSYTMGWYRQAPGKERELVASISRDGRTKYADSVKGRFTISRDNATNTVYLQMKSLKPEDTAVYYCANSKWRGRGGTYDYWGQVTQVTVSS | high polyreactivity
QVQIVESGGCLVQAGGSLRLSCAASGGTIGGNAMGWYRQAPGKQREMVAAITDIGGSTYYSDSVKGRFTISRDNAKNTVSLQKNCLKPEDTSVYFCATDEASNQDATYLYYYWGQGTQVTVSS | low polyreactivity
QVQIVESGGGLEQAGGSLRLSCAASGRIFNRYAMGWYRQAPGKDWELVARNSWSGARTYYADSVKGRFTISRDNAKNTVYLQMNRLKPEDTAVSYCAAAVTYPAGGRTSLYEYWGQRTQVTVSS | high polyreactivity
QVQIVESGGGLFQAGGSLRISCAASGSTIRANPMGWYRQAPGKERELVAAITKNGGSTYYADSVKGRYTISRDNAKYTVYLPMNTLIPEDNGVYYCAARRSSRRPPYYYWGQGTQVTVSS | high polyreactivity
QVQIVESGGGLFQAGGSLRLSCAASGITFVFYAKRRYRQAPGKERELVAAISSSGGSTYYADSVKVRFTISRDYAKNSVYLQMKSLKPDDTAVYYCNAIVFSYQRAVRYDYWGQGTQVTVSS | high polyreactivity
QVQIVESGGGLLQAGGSLRLSCAASGGIFGRYAMGWYRQAPGKERELVAAITTRGTSTYYADSVKGRFTISRDNAMNTVYLQMNSLKPEDTAVYYCSAAYGRHPSSGSWGQGTQVTVSS | high polyreactivity
QVQIVESGGGLVKAGGSLRLSCAASGSTFERYAMGWYRQAPGKERELVAAINWSGGGTYYADSVKGRFTISRDNAKNTVYLQMNSLKPEDTAVYYCAADSGTVVFSLWWYEYYYWGQGTQVTVSS | low polyreactivity
QVQIVESGGGLVQAGGILRLSCASSRSIFTVNTMGWYRQEHGKETELVAAINSRGGTTYYADSVKGRFTISRDNAKNTVYLQMISLKPEDTAFYYCAARTRIGLLYDYWGQGTQVTVSS | high polyreactivity
QVQIVESGGGLVQAGGRLRLSCSASGSIFDWYDMGWYRQAPGKERELVAAITTGGITNYADSVKGRFTLSRDNAKNTVYLQMNSLKPEDTAVYYCAADSLGVYDGDYWGQGTQVTVSS | low polyreactivity
QVQIVESGGGLVQAGGSLRFSCAASGRTFWLNDMGWYRHAPGKERELVARISRRGGSTYYAHSVKGRFTISRDHAKNTVYLQIISLKPEDTAVYYCAAAIVTRSYKYDYWGQGTQVTVSS | high polyreactivity
QVQIVESGGGLVQAGGSLRIICAASGSTFDPNAMGWYRQAPGKERELVAGISTGGTRTYYADSVKGRFTISRDNAKNTVFLQLKSLKPEDTAVYYCAARFTYNVLDTIYRLYYWGQGTQVTVSS | high polyreactivity
QVQIVESGGGLVQAGGSLRISCAASGLTFHRYAMGRYRQAPGKERELVAAINYSGGRTYYADSVKGRFTISRDNAKNTVYLQMNSLKPVDTAVYYCAAPRASGYYWGQGTQVTVSS | high polyreactivity
QVQIVESGGGLVQAGGSLRISCAPSGLTFGYYAMGWYRQAPGTERELVAAITYRGGSTYYADSVKGRFTISRDNAKNTVYLQMNSLKPEDTAVYYCATDYFYYDYWGQGTQVTVSS | low polyreactivity
QVQIVESGGGLVQAGGSLRLICAASGRIFYRYAMGWYRQAPGKERELVAAISSGSSTNYADSVKGRFTISRDNAKNTVYLQMNSLKPEDTAVYYCNAERYGKSWRYCYWGQGTQVTVSS | high polyreactivity
QVQIVESGGGLVQAGGSLRLICAASGSTFSEYAMGWYRQAPGKERELVAAIRWSGGSTSYADSVKGRFTISRVNAKNTVYLQMNSLKPEDTAVYYCAAERFWYDGEVKLYVLSYYWGQGTQVTVSS | low polyreactivity
